Measurements as given in the nanobody polyreactivity screen of Harvey et al. (2022).

experiment: yeast display, Sf9 membrane polyspecificity reagent, FACS + sequencing; frameworks hold sequencing errors
Method in brief: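 Nanobodies came from a synthetic yeast display library in Saccharomyces cerevisiae BJ5465, induced with galactose for 36–48 hours and stained for 1 hour at 4 °C with 10% biotinylated, detergent-solubilized Sf9 membrane reagent. Cells were enriched on streptavidin microbeads and then FACS-sorted, with low and high (top ~1%) gates set on anti-HA fluorescence for expression and streptavidin fluorescence for reagent binding. Each polyreactivity label reflects the gate a clone came from. Genes were amplified by colony PCR, sequenced by MiSeq 2 × 250 and filtered by CDR length.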

Row | Sequence | polyreactivity (PSR sort gate)
1 | QVQLVESGGGLVQAGGSLRLSCAASGRTFFYAMGWYRQAPGKEREFVAAISWSGGSTYYADSVKGRFTISRDNAKNTVYLQMNSLKPEDTAVYYCYKVGYYGVGTSKEFDYWGQGTQVTVSS | high polyreactivity
2 | QVQLVESGGGLVQAGGSLRLSCAASGRTFFYNAMGWYRQAPGKERELVAAISKNGGNTYYADSVKGRFTISRDNAKNTVYLQMNSLKPEDTAVYYCAARQSRTGPDRNDYWGQGTQVTVSS | high polyreactivity
3 | QVQLVESGGGLVQAGGSLRLSCAASGRTFFYYAMGWYRQAPGKERELVAAISTGGSTNYADSVKGRFTISRDNAKNTVYLQMNSLKPEDTAVYYCNADYDKGVRFNFNASFGEFDYWGQGTQVTVSS | low polyreactivity
4 | QVQLVESGGGLVQAGGSLRLSCAASGRTFGDKAMGWYRQAPGKERELVAAISWSGGRTYYADSVKGRFTISRDNAKNTVYLQMNSLKPEDTAVYYCAARNNRYPLYNYWGQGTQVTVSS | low polyreactivity
5 | QVQLVESGGGLVQAGGSLRLSCAASGRTFGDNAMGWYRQAPGKERELVAAISSGDSTNYADSVKGRFTISRDNAKNTVYLQMNSLKPEDTAVYYCAAEFSHTYVYVDLDYWGQGTQVTVSS | low polyreactivity
6 | QVQLVESGGGLVQAGGSLRLSCAASGRTFGDNAMGWYRQAPWKERELVAAISRSGRTYYADSVKGRFTISRDNAKNTVYLQMNSLKPEYTAVYYCNTPYAHYVTHGLDYWGQGTQVTVSS | high polyreactivity
7 | QVQLVESGGGLVQAGGSLRLSCAASGRTFGEYTMGWYRQAPGKERELVAAISSAGRTNYADSVKGRFTISRDNAKNTVYLQMNSLKPEDTAVYYCAKTAERLHYGVYRFDYWGQGTQVTVSS | low polyreactivity
8 | QVQLVESGGGLVQAGGSLRLSCAASGRTFGFYAMGWDRQAPGKERELVAVITWSVTSTYYADSVKGRFTISRDNAKNTVYLQMNSLKPEDTAVYYCAAEYVVGASSVRDSLDYGYWGQGTQVTVSS | high polyreactivity
9 | QVQLVESGGGLVQAGGSLRLSCAASGRTFGFYAMGWYRQAPGKERELVAGINNRGSGTYYADSVKGRFTISRDNAKNTVYLLMNSLKPEDTAVYYCAAGRRAKSRTWVNIRYDYWGQGTQVTVST | high polyreactivity
10 | QVQLVESGGGLVQAGGSLRLSCAASGRTFGFYAMGWYRQAPGKERELVATISSSGGSTYYADSVKGRYTISRDNAKNTVYIQMNSLKPEDTAVYYCAKVVSGWRSHYIGDYWGQGTQVTVSS | low polyreactivity
11 | QVQLVESGGGLVQAGGSLRLSCAASGRTFGGNAIGWYRQAPGKERELVAAISSGARTNYADSVKGRFTISRDNAKNTVYLQMNSLKPEDNAVYYCAAGYPYSYRDYYYWVQGTQVTVSS | high polyreactivity
12 | QVQLVESGGGLVQAGGSLRLSCAASGRTFGGNAMGWYRQAPGKERELVAAISLSGGTTYYADSVKGRFTISRDNAKNTVYLQMNSLKPEDTAVYYCAADTAGYYDEDKDGDYWGQGTQVTVSS | low polyreactivity
13 | QVQLVESGGGLVQAGGSLRLSCAASGRTFGGYAMGWYRQAPGKERELVAAITWRGGRTFYADSVKGRFTISRDNAKNTVYLQMNSLKPEDTAVYYCNVVKYGPRYDYWGQGTQVTVSS | high polyreactivity
14 | QVQLVESGGGLVQAGGSLRLSCAASGRTFGGYTMGWYRQAPGKERELVAAINWSGTTYYADSVKGRFTISRDNAKNTVYLQMNSLIPEDTAVYYCAASLVSYYGLARDSVDYWGQGTQVNVSS | low polyreactivity
15 | QVQLVESGGGLVQAGGSLRLSCAASGRTFGHNAMGWYRQAPGKERELVAAISASGSNTYYADSVKGRFTISRDNAKNTVYLQMNSLKPEDTAVYYCAKQVYRPGQQSRYDYWGQGTQVTVSS | low polyreactivity
16 | QVQLVESGGGLVQAGGSLRLSCAASGRTFGIYAMGWYRQAPGKERELVAAITGRGGSTHYADSVKGRFTISRDNAKNTVYLQMNSLKPEDTAVYYCAADYRYNRGITSNKDYDYWGQGTQVTVSS | low polyreactivity
17 | QVQLVESGGGLVQAGGSLRLSCAASGRTFGIYAMGWYRQAPGKERELVATISWRGGSTYYADSVKGRFTISRDNAKNSVYLQMNSLKPEDTAVYYCAAGYYPYWGQGTQVTVSS | low polyreactivity
18 | QVQLVESGGGLVQAGGSLRLSCAASGRTFGIYAMGWYRQAPGKERELVATISWRGGSTYYADSVKGRFTISRDNAKNTVYLQMNSLKPEDTAVSYCAAGYYPYWGQGTQVTVSS | low polyreactivity
19 | QVQLVESGGGLVQAGGSLRLSCAASGRTFGKNAMGWYRQAPGKEREFVAAITSRGGSTYYADSVKGRFTISRDYAKNTVYLQMNSLKPEDTAVYYCNREYKRPSQRTEHYYWGQGSQVTVSS | low polyreactivity
20 | QVQLVESGGGLVQAGGSLRLSCAASGRTFGKYAMGWYRQAPGKERELVATITRTARTNYADSVKGRFTNSRDNAKNTVYFQMNSLKPEDTAVYYCAKGWPAIYGTYDYWGQGTQVTVSS | high polyreactivity
21 | QVQLVESGGGLVQAGGSLRLSCAASGRTFGLNAMGWYRQAPGKERELVAAITSGGSTYYADSVKGRFTITRDNAKTTVYLQMNSLKPEDTAVYYCAAAYFDFWGWLHDYWGQGTQVTVSS | low polyreactivity
22 | QVQLVESGGGLVQAGGSLRLSCAASGRTFGNYAMGWYRQAPAKESELVAAITGRGGSTHYADSVKGRFTISRDNAKYTVYLQMNSLKPEDTAVYDCAADYRYNRGITSNKDYDYWGQGTQVTVSS | low polyreactivity

Row | Sequence | polyreactivity (PSR sort gate)
23 | QVQLVESGGGLVQAGGSLRLSCAASGRTFGNYAMGWYRQAPGKERELVAAITSSGGTTYYADSVKGRFTISRDYAKNTVYLQMNSLKPEDTAVYYCAARHYPRNSWGYDYWGQGTQVNVSS | high polyreactivity
24 | QVQLVESGGGLVQAGGSLRLSCAASGRTFGPYAMGWYRQAPGKERELVAAISRSGGRTYYADSVKGRFSISRDNAKNTVYLQMNSLKPEETAVYYCNALYLSTRSGDYWGQGSQVTVSS | high polyreactivity
25 | QVQLVESGGGLVQAGGSLRLSCAASGRTFGPYARGWYIQAPGKERELVAAISWIGTSTYYADSVKGRFTISRDNAKNTVYLQMNSLKPEDTAVYYCAALEKNYTTKFYYWGQVTQVTVSS | high polyreactivity
26 | QVQLVESGGGLVQAGGSLRLSCAASGRTFGPYVMGWYRQAPGKERELVAAISFSGGSTYYADSVKGRFTISRDNAKNTVYLQMNSLKPEDTAVYYCAAPATRPYYTGYDYWGQGTQVTVSS | high polyreactivity
27 | QVQLVESGGGLVQAGGSLRLSCAASGRTFGPYVMGWYSQAPGKDRELVAVIRWSGVSTYYADSVKGRFTISRDKAKNTVYLLRNSMTPEDTAVDYCNAVRPYRLASYDYWGQGTQVTVSS | high polyreactivity
28 | QVQLVESGGGLVQAGGSLRLSCAASGRTFGQNAMGWYRQAPGKERELVATITLNGGNTYYADSVKGRFTISRDNAKNTVYLQMNSLKPEDTAVYYCNAVPSWYRYRPPRFDYWGQGTQVTVSS | low polyreactivity
29 | QVQLVESGGGLVQAGGSLRLSCAASGRTFGQYAMGWYRQAPGKEREFVAGITWSGGSTSYADSVKGRFTISRDNAKNTVYLQMNSLKPEDTAVYYCIAVYWKPSLEYGYWGQGTQVTVSS | high polyreactivity
30 | QVQLVESGGGLVQAGGSLRLSCAASGRTFGQYAMGWYRQAPGKERELVAAISTRGGSTYYADSVKGRFTISRDNAKNTVYLQLNSLKPEDTAVYYCAARQGWFAGYEYWGQGTQVTVSS | low polyreactivity
31 | QVQLVESGGGLVQAGGSLRLSCAASGRTFGQYTMGWYRQAPGKERELVAGITRSGSRTYYADSVKGRFTISRDNAKNTVYLQMNSLKPEDTAVYYCAARVYKSQGGLPEYDYWGQGTQVTVSS | high polyreactivity
32 | QVQLVESGGGLVQAGGSLRLSCAASGRTFGQYVMGWYRQAPGKERELVAAIRSGGSTYYADSVKGRFTISRDNAKNTVYLQMNSLKPEDTAVYYCAKETYYGTDNFGQVGGEMDYWGQGTQVTVSS | low polyreactivity
33 | QVQLVESGGGLVQAGGSLRLSCAASGRTFGRNAMGWYRPAPGKERELVATITRRGGSTYYADSVKGRFTISRDNAKNTVYLQMYSLKPEDTAVYYCNAGIWLGSFRQRFYYWGQGTQVTVSS | high polyreactivity
34 | QVQLVESGGGLVQAGGSLRLSCAASGRTFGRNAMGWYRQAPGKERELVAAINSGGSTKYADSVKGRFTISRDNAKNTVYLQMNSLKPEDTAVYYCARRGGFSYYYWGQGTQVTVSS | high polyreactivity
35 | QVQLVESGGGLVQAGGSLRLSCAASGRTFGRNTMGWYRQAPGKERELVAAIDWSGGSTYYADSVKGRFTISRDNAKNTVYLQMNSLKPEDTAVYYCAAASRYPVNYYYWGQGTQVTVSS | high polyreactivity
36 | QVQLVESGGGLVQAGGSLRLSCAASGRTFGRNTMGWYRQAPGKERELVASITRSSGSTYYADSVKGRFTISRDNAKNTVYLQMNSLKPEDTAVSYCNARATSGGDYWGQGTQVTVSS | high polyreactivity
37 | QVQLVESGGGLVQAGGSLRLSCAASGRTFGRYAKGWYRQAPGKERELVAAISWSGGSTYYADSVKGRFTISRDNAKNTVYLQMNSLKPEDTAVYYCAAVTTDGVYAFDYWGQGTQVTVSS | low polyreactivity
38 | QVQLVESGGGLVQAGGSLRLSCAASGRTFGRYAMGWYRQAHGKERELVAAISWSGGSTYYADSVKGRFTISRDNAKNTVYLQMNNLKPEDTAVYYCAAVTTDGVYAFDYWGQGTQVTVSS | low polyreactivity
39 | QVQLVESGGGLVQAGGSLRLSCAASGRTFGRYAMGWYRQAPGKERELVAAITRSGSSTYYADSVKGRFTISRDNAKNTVYLQMNSLKPEDTAVYYCAALYGPFYSTGEYWGQGTQVTVSS | high polyreactivity
40 | QVQLVESGGGLVQAGGSLRLSCAASGRTFGRYAMGWYRQAPGKERELVAAITWSGGSTYYADSVKGRFTISRDYAKNTVYLQMNSLKPEDTAVYYCAAARVYFGDLFVVYYFIQYDYWGQGTQVTVSS | low polyreactivity
41 | QVQLVESGGGLVQAGGSLRLSCAASGRTFGRYAMGWYRQAPGKESELVAAISWTGGRTYYADSVKGRFTISRDNAKNTVYLQMNSLKPEDTAVYYGAALYDRIPAASRGYDSWGQVTQVTVSS | high polyreactivity
42 | QVQLVESGGGLVQAGGSLRLSCAASGRTFGRYTMGLYRQAPGKERELVAAITYSGGSTYYADSVKGRFTISRDNAKNTVYFQMNSLKPVDTAVYYCADEWGYDWYRYGYWGQGTQVTVSS | low polyreactivity
43 | QVQLVESGGGLVQAGGSLRLSCAASGRTFGRYVMGWYIQAPGKERELVAAIRWSGGTTYYADSVKGRFTISRDNAKNTVYLQMNSLKPEDTAVYYCAARWGPYYGGVRYGYWGQGTQVTVSS | high polyreactivity
